Results as given in the supplement of paper PMC12764529.
± gives the half width of the 95% confidence interval.

Experiments:
[1] = folding stability dG unfold from trypsin proteolysis; higher = more stable
Procedure, shortened: (§1)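 K50 was inferred by Bayesian fitting of sequencing counts obtained after protease digestion of designed mini-proteins. Unfolding free energy was derived by comparison with a sequence-predicted unfolded-state K50 and a shared folded-state K50, for each protease or both combined. The mini-proteins were under 80 residues, had no cysteine, were carried in a PA-tagged cDNA display construct, and were kept only if AlphaFold2 dimer inter-PAE exceeded 15.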

[2] = folding stability dG unfold from chymotrypsin proteolysis; higher = more stable
Procedure, shortened: as §1

[3] = folding stability dG unfold (combined trypsin and chymotrypsin); higher = more stable
Procedure, shortened: as §1

Sequence	folding stability dG unfold [1]	folding stability dG unfold [2]	folding stability dG unfold [3]
SANDDDWVTVIFEIPIVRKDPDGKPEKHPFRLMVQVHPDGRVEINIMYPNGRPIASQTVPPGQTLEDFISAG [r14_559_TrROS]	2.63 ± 0.13 kcal/mol	3.84 ± 0.077 kcal/mol	3.38 ± 0.23 kcal/mol
SAGGSAGGSMRVRFLVTEPGLGPETAALRVERRLLEEYPVRVKGVRVRTRPDGGYLVVVEVEPSAGGSAGGS [r12_781_TrMRF]	0.673 ± 0.076 kcal/mol	1.03 ± 0.1 kcal/mol	0.94 ± 0.088 kcal/mol
SAGGSAGGSAGGMKKPILLPGETEEDVLERIKKLPKDYKVTIEKLDDDKLLVTITSPKLGSAGGSAGGSAGG [r7_662_JUSTAS]	0.877 ± 0.14 kcal/mol	-0.5 ± 0.51 kcal/mol	0.58 ± 0.33 kcal/mol
SAGEIKITVEEVEDGELLVTVEITAESKEEALKALEDLIRELFGEDVEIVSVEFDEETKRIRVTIRIKPSAG [r5_810_TrROS_Hall]	4.25 ± 0.21 kcal/mol	3.51 ± 0.29 kcal/mol	4.35 ± 0.35 kcal/mol
SAGGSAGGSAMKTFTKTFSSPEEAERAAEEIKEKLEKEGKKVKITFEKPETDTYIVTITIESAGGSAGGSAG [r3_211_JUSTAS]	3.44 ± 0.16 kcal/mol	3.93 ± 0.12 kcal/mol	3.82 ± 0.19 kcal/mol
SAGGSADRVTVTVTVRVRDPATGEWREVTETVTVPAPLTLEITLPPGWRLRLTLEDGELRLEVEPESAGGSA [r2_109_TrROS_Hall]	3.1 ± 0.096 kcal/mol	4.26 ± 0.051 kcal/mol	3.93 ± 0.063 kcal/mol
SAGGSAGGSAGKIKIKNEDGSEYEVKKIEITIKNENGEKKKIKLEIELPKAKEVKIEKKKSAGGSAGGSAGG [r11_804_TrROS_Hall]	-1.2 ± 0.83 kcal/mol	0.32 ± 0.087 kcal/mol	-0.13 ± 0.29 kcal/mol
SAGGALDAIKNIAEKFGFPEIEDIDIDPDNGWLSFRFRGPEPVYIKIPWKPDKNGNLPVNIEVYPMDDSAGG [r13_410_TrROS]	1.48 ± 0.041 kcal/mol	1.88 ± 0.11 kcal/mol	1.65 ± 0.13 kcal/mol
SAGGLEEKILEAVKNMSPEEPVVEREVELPDGKLKVTVTRDGLPYTVTITRTNPDGTTTTTTTTILLSAGGS [r16_642_JUSTAS]	2.46 ± 0.16 kcal/mol	2.37 ± 0.046 kcal/mol	2.34 ± 0.12 kcal/mol
SAGGMPKPVTLPAVIELGAGPAIAVEEFPETGKLVFVFPPTHRIFVFDPNGKLVAEVDVPPDVPVSAVSAGG [r13_507_TrMRF]	0.901 ± 0.053 kcal/mol	0.973 ± 0.31 kcal/mol	0.931 ± 0.15 kcal/mol
SAGGSAGGSASKTIFIPAAVVAANPEKAVEFAEKVREEFEKKGLSVKTEVLPDGGIGIHVGSAGGSAGGSAG [r3_75_TrMRF]	2.07 ± 0.071 kcal/mol	1.61 ± 0.054 kcal/mol	1.88 ± 0.087 kcal/mol
SASLEPVATTAVPLPDGTTATLTLYRDPATGRYTVRVTVTHPDGAAETRVLEVDSEEEALSRVVLSPGASAG [r14_749_JUSTAS]	2.38 ± 0.049 kcal/mol	3.421 ± 0.018 kcal/mol	3.12 ± 0.075 kcal/mol
SAGGSAGGSAGSMLLSLSIASVETTETTEIDPETGEKRKVTTTTITIPGTGQTITLTETVESAGGSAGGSAG [r3_424_JUSTAS]	1.83 ± 0.058 kcal/mol	0.532 ± 0.07 kcal/mol	1.28 ± 0.065 kcal/mol
SAGGKKIEIEIVFKEGEKAPSAEEIAKKLLEEIPNIKITSIEIVDVEYDEETGEKYVVVKITIEVEPPSAGG [r13_10_TrROS_Hall]	2.96 ± 0.18 kcal/mol	3.14 ± 0.14 kcal/mol	3.17 ± 0.28 kcal/mol
SAGGSAGGEPETIEIKMTPEELEELARELEKEGYTIEVEVVEEKVVGPDGKEREVVVRVRVEKRSAGGSAGG [r6_857_TrROS_Hall]	0.991 ± 0.03 kcal/mol	1.32 ± 0.04 kcal/mol	1.1 ± 0.099 kcal/mol
SAGGSAGGGPPLPPPVLVLPARVERVFYDPVTGELTVETVDFPVVIRPDGSVYLGDRWIPPELLSAGGSAGG [r6_514_TrMRF]	1.23 ± 0.046 kcal/mol	1.85 ± 0.12 kcal/mol	1.61 ± 0.2 kcal/mol
SAGGSAGGSAGGTKTIPFPIEEIEVEHNPDNNYYHVTIRFPDNGKPITFMFPPGDTITISAGGSAGGSAGGS [r10_819_TrROS]	0.812 ± 0.025 kcal/mol	0.836 ± 0.15 kcal/mol	0.868 ± 0.12 kcal/mol
SAGGMTLRIVLPEEEAEKLVEELKKIFPGAEIKVKKVEYNEETGEKLVVLEIKFKSKEEAEKAKKLLESAGG [r13_539_TrROS_Hall]	3.54 ± 0.1 kcal/mol	3.8 ± 0.12 kcal/mol	3.73 ± 0.083 kcal/mol
SAGMKEIKIKDAKIEVKKKKDGKKVKRITLKDGKEIEIKEDGSIIIRNKKTGKYIKLPKNMTIEELLKKSAG [r5_348_TrROS_Hall]	0.925 ± 0.09 kcal/mol	1.74 ± 0.029 kcal/mol	1.48 ± 0.098 kcal/mol
SAGGGSMPASITTEVTETTTPDATVTKSTVYYPDTGKWLEETTTTGPTTTITTTKFPDGSTTVTTAASAGGS [r16_657_JUSTAS]	0.275 ± 0.052 kcal/mol	-1.18 ± 0.28 kcal/mol	-0.175 ± 0.11 kcal/mol
SAGGSASVTRMIQIPPGDPNMSIEEAIEKIKIYLPNGKPVTIEIDRIWPDPNRYFFMITIKDGKPVSAGGSA [r15_331_TrROS]	1.21 ± 0.088 kcal/mol	2.28 ± 0.13 kcal/mol	1.86 ± 0.15 kcal/mol
